Tested on: C[C@@H](N)C(=O)O
Test: purified protein, by the assay type
Settings: other: air saturation, 25°C, pH 8.5, 0.2 mM FAD

Chain of R120L hDAAO variant (Homo sapiens; R120L) (chain, as listed by the source R120L R120L): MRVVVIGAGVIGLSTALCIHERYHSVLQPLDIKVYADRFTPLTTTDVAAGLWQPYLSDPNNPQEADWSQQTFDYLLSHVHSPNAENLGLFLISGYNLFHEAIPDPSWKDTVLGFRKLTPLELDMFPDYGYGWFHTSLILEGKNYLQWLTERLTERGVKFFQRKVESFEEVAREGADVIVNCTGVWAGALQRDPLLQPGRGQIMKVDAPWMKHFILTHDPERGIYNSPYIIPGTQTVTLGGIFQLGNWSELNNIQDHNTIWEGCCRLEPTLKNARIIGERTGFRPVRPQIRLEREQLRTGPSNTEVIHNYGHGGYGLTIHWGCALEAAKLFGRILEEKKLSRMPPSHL
Chain of R120E hDAAO variant (Homo sapiens; R120E) (chain, as listed by the source R120E R120E): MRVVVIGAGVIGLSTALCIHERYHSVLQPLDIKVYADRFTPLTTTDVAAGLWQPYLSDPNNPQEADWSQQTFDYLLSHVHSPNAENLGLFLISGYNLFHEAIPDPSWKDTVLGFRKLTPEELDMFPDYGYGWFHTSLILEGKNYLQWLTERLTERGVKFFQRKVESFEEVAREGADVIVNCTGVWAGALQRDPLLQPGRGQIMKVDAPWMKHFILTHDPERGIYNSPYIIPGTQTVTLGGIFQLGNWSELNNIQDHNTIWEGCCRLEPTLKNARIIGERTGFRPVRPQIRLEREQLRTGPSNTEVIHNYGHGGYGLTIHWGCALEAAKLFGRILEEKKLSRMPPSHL

Substance | Km | kcat | kcat/Km
R120E hDAAO variant (Homo sapiens; R120E) | 1400 ± 100 µM | 12.6 s⁻¹ | 8900 M⁻¹ s⁻¹
R120L hDAAO variant (Homo sapiens; R120L) | 2000 ± 300 µM | 17.3 s⁻¹ | 8500 M⁻¹ s⁻¹

Source: PMC6862323, “Substitution of Arginine 120 in Human D-Amino Acid Oxidase Favors FAD-Binding and Nuclear Mistargeting” (Frontiers in Molecular Biosciences, 2019)
